In paper PMC6992696, “Supramolecular tholos-like architecture constituted by archaeal proteins without functional annotation” (Scientific Reports, 2020):
One block for each molecule: values may come before it.

B2: PbaA (PF0015) from Pyrococcus furiosus, full-length (natural protein, UniProt Q8U4Q9 1-242, looked up)
chain: MEEKKPVNLVLPEVENAIFIEGYPGVGLVGHIAANFLAKELDMDLIGYVDSLFIPPMSLILEGRPTPPLRFYGKNNIIIAIADIFLPPTLVNEIAKEIVNYLKKVNAEKVISLAGMGIGFFKDTFEVWGIGGSEEENKELESLGVKILKYGSITGMSGKLLWEASRAGLKSYVLLGETFGDRPDPRAAANVVEVLNKMLGLNVSVEPLLKEAEMIEEQLRRMHEQMEEARRKMERQYETMYL
notes: PbaA (PF0015), Pyrococcus furiosus, full-length; cloned from P. furiosus genomic DNA; Homopentameric ring when isolated; two pentameric rings in the 10:10 complex with PF0014; also called full-length PbaA; PbaA pentamer

What was measured:
[1] = target: PbaA_(CΔ30), mutant PbaA with deletion of 30 C-terminal amino acid residues (Pyrococcus furiosus); assay: SEC + other: negative stain EM; PbaA_(CΔ30) alone, in the absence of PF0014
[2] = target: PbaA_(CΔ30), mutant PbaA with deletion of 30 C-terminal amino acid residues (Pyrococcus furiosus); assay: cryo-EM structure; purified PbaA_(CΔ30)/PF0014 complex; map EMD-0755 at 7.3 Å with D5 symmetry and 8.5 Å with C1 symmetry
[3] = target: the molecule itself; assay: cryo-EM structure; hexahistidine-tagged PbaA/Trx-PF0014 complex treated with excess anti-histidine-tag monoclonal antibody for 2 h at 4 °C; map at 14 Å, C1 symmetry
[4] = target: the molecule itself; assay: HS-AFM; isolated proteins, top views on APTES-mica, tapping mode, room temperature
[5] = target: B2; assay: native MS; purified PbaA/PF0014 complex (20 μM) exchanged into 150 mM ammonium acetate pH 9.0, 2-fold diluted, nanoflow ESI, SYNAPT G2-Si; conditions: both partners purified

stoichiometry N [1]: 14 protomers
stoichiometry N [2]: 5 protomers
Molecule: PbaA_(CΔ30), mutant PbaA with deletion of 30 C-terminal amino acid residues (domain or fragment)

B1: N-terminally hexahistidine-tagged PbaA (natural protein, Pyrococcus furiosus)
chain: MEEKKPVNLVLPEVENAIFIEGYPGVGLVGHIAANFLAKELDMDLIGYVDSLFIPPMSLILEGRPTPPLRFYGKNNIIIAIADIFLPPTLVNEIAKEIVNYLKKVNAEKVISLAGMGIGFFKDTFEVWGIGGSEEENKELESLGVKILKYGSITGMSGKLLWEASRAGLKSYVLLGETFGDRPDPRAAANVVEVLNKMLGLNVSVEPLLKEAEMIEEQLRRMHEQMEEARRKMERQYETMYL
notes: PbaA (PF0015), Pyrococcus furiosus; The His tag was labelled with a monoclonal anti-histidine-tag antibody (R&D Systems) in the cryo-EM sample; the antibody is only a tool; May be the same preparation as m1 if the tag was never removed there; not shown: His6, N-terminal, kept
stoichiometry N [3]: 5 protomers

Molecule: B2
stoichiometry N [4]: 5 protomers

stoichiometry N [5]: 1 PF0014 per PbaA (10:10)
B3: PF0014 from Pyrococcus furiosus (natural protein, UniProt Q8U4R0 1-128, looked up)
chain: MVVEIPLLSGIARRTLDALMRNPIRTVEIRNARNYMTLEKVKEGDLVFLTYESLEDVMRGTEGIIAMVTRMEKSHQRVPWEESDEREISICRVQLKLVGLGRVVEVQEKNGVVFVKVREMLHHEISMG
notes: PF0014, Pyrococcus furiosus, an archaeal protein without functional annotation; Monomeric by HS-AFM when isolated; ten copies in the complex with PbaA
